These results are taken from patent CN108752475A (BEIJING WISDOMAB BIOTECHNOLOGY CO LTD, dated 2018).

Residue numbers refer to the chain shown, from its start.

To fix the notation:
T1: 小鼠CD38胞外区 (mCD38) with C-terminal His tag, mCD38-his (mouse (mus musculus), UniProt P56528 45-304)
T1 construct: Recombinant, made in HEK293 cells; coated on the ELISA plate; not shown: His tag added at the C-terminus
T1 sequence: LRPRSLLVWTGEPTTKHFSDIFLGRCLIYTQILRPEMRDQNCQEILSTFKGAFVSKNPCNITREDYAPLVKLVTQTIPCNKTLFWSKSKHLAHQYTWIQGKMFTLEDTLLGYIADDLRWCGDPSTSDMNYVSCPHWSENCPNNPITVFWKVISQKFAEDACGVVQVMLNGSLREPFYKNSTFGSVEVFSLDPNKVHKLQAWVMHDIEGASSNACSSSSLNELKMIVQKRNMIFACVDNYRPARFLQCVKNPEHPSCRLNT

B1: S5B8VH-h1+S5B8VK-h1 (antibody, human IgG1, V domains shown)
VH: QVQLVQSGAEVKKPGASVKVSCKASGYAFTNSWMHWVRQAPGQRLEWMGEIHPQSGRTNYNEKFKGRVTITRDTSASTAYMELSSLRSEDTAVYYCARDLLQFGNQYYYAMDYWGQGTLVTVSS
VL: DVVMTQSPLSLPVTLGQPASISCRSSQSLVHSNGNTYLHWFQQRPGQSPRRLIYKVSNRFSGVPDRFSGSGSGTDFTLKISRVEAEDVGVYYCSQSTHVPLTFGQGTKLEIK
notes: Humanized, expressed as a human IgG1 whole antibody; also called S5B8人源化分子
B2: S5B8VH-h1+S5B8VK-h2 (antibody, human IgG1, V domains shown)
VH: B1 VH
VL: B1 VL with V2I, S7T, L15P, Q17E, F41Y, Q42L, R44K, R50Q, R51L
notes: as for B1
B3: S5B8VH-h2+S5B8VK-h1 (antibody, human IgG1, V domains shown)
VH: B1 VH with R44G, I70M, A76T, A79V
VL: B1 VL
notes: as for B1
B4: S5B8 (mouse-human chimeric antibody, human IgG1) (antibody, V domains shown)
VH: QVQLQQSGSVLVRPGVSVKLSCKASGYAFTNSWMHWAKQRPGQGLEWIGEIHPQSGRTNYNEKFKGKATLTVDTSSSTAYVDFSSLTSEDSAVYYCARDLLQFGNQYYYAMDYWGQGTSVTVSS
VL: DVVMTQTPLSLPVSLGDQASISCRSSQSLVHSNGNTYLHWYLQKPGQSPKLLIYKVSNRFSGVPDRFSGSGSGTDFTLKISRVEAEDLGVYFCSQSTHVPLTFGAGTKLEMK
notes: Tested as a recombinant human IgG1-kappa/lambda mouse-human chimeric antibody; also called 鼠单抗S5B8
B5: S5B8VH-h2+S5B8VK-h2 (antibody, human IgG1, V domains shown)
VH: B1 VH with R44G, I70M, A76T, A79V
VL: B1 VL with V2I, S7T, L15P, Q17E, F41Y, Q42L, R44K, R50Q, R51L
notes: as for B1
B6: S5A10-h1 (antibody, human IgG1, V domains shown)
VH: QVQLVQSGAEVKKPGSSVKVSCKASDYPFISYTIHWVRQAPGQGLEWMGYINPSNGYTNYNQKFKDRVTITADKSTSTAYMELSSLRSEDTAVYYCARKYGNFYAMDYWGQGTLVTVSS
VL: DIQMTQSPSSLSASVGDRVTITCRASENIYSYLAWYQQKPGKAPKLLIYNAKTLAEGVPSRFSGSGSGTDFTLTISSLQPEDFATYYCQHHYGTPYTFGQGTKLEIK
notes: Humanized, expressed as a human IgG1 whole antibody; also called S5A10VH-h1+S5A10VK-h1; S5A10人源化分子
B7: S5D3 (mouse-human chimeric antibody, human IgG1) (antibody)
scFv: QVQLQQSGAELMKPGASVKISCKATGYTSSSYWIEWVKQRPGHGLEWIGEILPGSGSTNYNEKFKGKATFTADTSSNTAYMQLSSLTSEDSAVYYCARLYDNSYFDYWGQGTSLTVSSGGGGSGGGGSGGGGSDIVMTQSPSSMYASLGERVTITCKASQDINSYLSWFQQKPGKSPKTLIYRANRLVDGVPSRFSGSGSGQDYSLTISSLEYEDMGIYYCLQYDEFPYTFGGGTKLEMK
notes: Tested as a human IgG1-kappa/lambda chimeric antibody built from the variable domains of this scFv
B8: S5B5 (mouse-human chimeric antibody, human IgG1) (antibody)
scFv: QVKLQQFGAELVKPGASVKISCKATGYTFSSYWIGWVKQRPGHGLEWIGEILPGTGSTNYNEKFKDKATFTADTSPNTAYMQLSSLTSEDSAVYYCARWDGNYGDYALDYWGQGTSVTVSAGGGGSGGGGSGGGGSDIVMTQSPSSMYASLGERVTITCKASQDINSYLSWFQQKPGKSPKTLIYRANRLVDGVPSRFSGSGSGQDYSLTISSLEYEDMGIYYCLQYDEFPYTFGGGTKLEIK
notes: as for B7
B9: S5B4 (mouse-human chimeric antibody, human IgG1) (antibody)
scFv: QVKLQQSGAELMKPGASVKISCKATGYTFSSYWIGWLKQRPGHGLEWVGELLPGSGSTNYNEKFKGKATFTADTSSNTAYMQLSSLTSEDSAVYYCARWDGNYGDYTLDYWGQGTSVTVSSGGGGSGGGGSGGGGSDIVMTQSPSSMYASLGERVTITCKASQDINSYLSWFQQKPGKSPKTLIYRANRLVDGVPSRFSGSGSGQDYSLTISSLEYEDMGIYYCLQYDEFPYTFGGGTKLEMK
notes: as for B7
B10: S5E3 (mouse-human chimeric antibody, human IgG1) (antibody)
scFv: QVQLQQSGPEVVKPGASVKMSCKATGYTSRSYWIEWVKQRPGHGLEWIGEILPGSGSTNYNEKFKGKATFTADTSSNTAYMQLSSLTSEDSAVYYCARWDGNYGDFVLDYWGQGTSVTVSSGGGGSGGGGSGGGGSDIQMTQSPSSMYASLGERVTITCKASQDINSYLSWFQQKPGKSPKTLIYRANRLVDGVPSRFSGSGSGQDYFLTISSLEYEDMGIYYCLQYDEFPYTFGGGTKLEMK
notes: as for B7
B11: S5B7 (mouse-human chimeric antibody, human IgG1) (antibody)
scFv: QVQLQQPGSVLVRPGASVKLSCKATGYTFSSYWIEWVKQRPGHGLEWIGDILPGTGTTNYNEKFKGKATFTADTSSNTAYMQFSSLTSEDSAVYYCASSYGNYVWGQGTSLTVSSGGGGSGGGGSGGGGSDVVMTQSPASLAVSLGQRATISCKASQSVDYDGDSYMNWYQQKPGQPPRLLIYAASNLESGIPARFSGSGSGTDFTLNIHPVEEEDAATYYCQQGNGAPRTFGGGTKLEIK
notes: as for B7

For the first experiment, the target named is T2, 人CD38胞外区 (hCD38) with C-terminal His tag, hCD38-his (human (homo sapiens), UniProt P28907 43-300).
T2 construct: Recombinant, made in HEK293 cells; not shown: His tag added at the C-terminus
Nature of the experiment: SPR (Biacore), antibody captured by anti-human Fc on CM5, hCD38 as analyte, 25 °C. (In general: In SPR one partner is held on a chip, and binding of the other changes the refractive index at the surface.)
As to B1, the Kd (commonly the equilibrium constant for the complex coming apart) came to 0.371 nM. B2 returned a Kd of 0.0894 nM. In turn, B3 yielded a dissociation constant (Kd) of 0.406 nM. For the molecule B4, binding was characterised by a dissociation constant (Kd) of 0.178 nM.

B5 gave a Kd of 0.0486 nM.

The target in another experiment is T3, 食蟹猴CD38胞外区 (mfCD38) with C-terminal His tag, mfCD38-his (cynomolgus monkey (Macaca fascicularis), UniProt Q5VAN0 44-301).
T3 construct: not shown: His tag added at the C-terminus
T3 sequence (Q5VAN0 44-301): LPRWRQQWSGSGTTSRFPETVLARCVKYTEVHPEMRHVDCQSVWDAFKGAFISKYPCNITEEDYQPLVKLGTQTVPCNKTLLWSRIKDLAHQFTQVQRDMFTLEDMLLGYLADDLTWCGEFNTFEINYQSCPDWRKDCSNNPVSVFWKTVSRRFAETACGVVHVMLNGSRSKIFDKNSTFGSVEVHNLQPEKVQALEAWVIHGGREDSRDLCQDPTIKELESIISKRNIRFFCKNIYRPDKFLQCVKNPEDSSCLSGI
The experiment can be described thus: SPR (Biacore), antibody captured by anti-human Fc on CM5, mfCD38 as analyte.
The molecule B1 returned a Kd of 13.6 nM.

The molecule B2 yielded a dissociation constant Kd of 5.15 nM. Molecule B3 registered a Kd of 9.66 nM. For the molecule B4, the Kd is 3.14 nM. The molecule B5 yielded a dissociation constant Kd of 3.48 nM.

A further experiment deals with T2, 人CD38胞外区 (hCD38) with C-terminal His …. The experiment can be described thus: SPR (Biacore), antibody captured by anti-human Fc on CM5, hCD38 as analyte, 25 °C. This is another data set of the same source.
As for B6, binding was put at a Kd of 2.73 nM.

Another experiment addresses T1, 小鼠CD38胞外区 (mCD38) with C-terminal His …. The experiment can be described thus: ELISA, mCD38-his coated at 1.5 μg/ml, HRP anti-human IgG detection.
With B7, the binding result was “no binding”. The same measure, in the same setting: to B4 belongs “no binding”.

As to B8, the binding result was “no binding”.

As to B9, the binding result was “no binding”. As for B10, the binding result is recorded as “no binding”.

As to B11, the binding result is recorded as “no binding”.
